Key:
[1] = target: T1, human MET on cells (human, UniProt P08581 25-1390); experiment: cell-based or functional assay
[2] = target: T1, human MET on cells; experiment: cell-based or functional assay; remark: listed apart in the source
[3] = target: T2, hMET.mFc (dimeric human MET) (human, UniProt P08581 27-307); experiment: SPR 37C, antibody captured
T2 construct: soluble dimeric MET protein
Description: (§1) The anti-Met antibodies tested in this example were bivalent monospecific binders of MET.
(§2) Kinetic association (kₐ) and dissociation (kd) rate constants were determined by fitting the real-time sensorgrams to a 1:1 binding model using Scrubber 2.0c curve fitting software. Binding dissociation equilibrium constant (KD) and dissociative half-life (t1/2) were calculated from the kinetic rate constants as: […]

[4] = target: T3, hMet.mmh (human MET extracellular domain with C-terminal myc-myc-hexahistidine tag) (human, UniProt P08581 309-914; P08581 27-307); experiment: SPR 37C, antibody captured
T3 construct: soluble monomeric MET; also called monomeric human MET
Description: as §1, §2

[5] = target: T1, human MET on cells; experiment: cell-based or functional assay; remark: listed apart in the source
Throughout, for % Inhibition, HEK293/SRE-Luc Blocking Activity (HGF, 1 h mAb pre-bind): test concentration or dose not given here.

T2 sequence (P08581 other isoform, or with tags, fused parts or gaps limits assumed, chain 1 of 2): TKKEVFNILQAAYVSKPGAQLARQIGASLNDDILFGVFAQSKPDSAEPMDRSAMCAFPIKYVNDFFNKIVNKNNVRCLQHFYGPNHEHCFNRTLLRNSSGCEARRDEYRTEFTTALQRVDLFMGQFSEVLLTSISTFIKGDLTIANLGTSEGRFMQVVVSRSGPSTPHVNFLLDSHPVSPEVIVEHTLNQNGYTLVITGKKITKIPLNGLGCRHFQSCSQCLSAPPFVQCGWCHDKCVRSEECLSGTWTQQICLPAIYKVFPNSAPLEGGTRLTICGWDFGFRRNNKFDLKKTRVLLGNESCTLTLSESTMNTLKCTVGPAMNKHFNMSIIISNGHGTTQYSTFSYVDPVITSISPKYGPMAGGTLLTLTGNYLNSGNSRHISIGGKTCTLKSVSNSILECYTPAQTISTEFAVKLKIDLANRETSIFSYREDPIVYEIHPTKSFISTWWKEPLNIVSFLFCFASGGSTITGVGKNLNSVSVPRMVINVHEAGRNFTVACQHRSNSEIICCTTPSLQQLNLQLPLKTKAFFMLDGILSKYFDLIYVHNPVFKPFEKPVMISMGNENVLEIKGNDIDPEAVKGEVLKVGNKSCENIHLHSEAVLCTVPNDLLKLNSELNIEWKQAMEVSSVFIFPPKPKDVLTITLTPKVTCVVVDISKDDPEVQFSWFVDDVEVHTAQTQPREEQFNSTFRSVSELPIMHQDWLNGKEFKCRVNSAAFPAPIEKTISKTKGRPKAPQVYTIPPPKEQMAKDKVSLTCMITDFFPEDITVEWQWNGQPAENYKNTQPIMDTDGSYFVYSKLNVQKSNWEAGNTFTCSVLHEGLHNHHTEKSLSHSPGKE
T2 sequence (P08581 27-307 limits assumed, chain 2 of 2): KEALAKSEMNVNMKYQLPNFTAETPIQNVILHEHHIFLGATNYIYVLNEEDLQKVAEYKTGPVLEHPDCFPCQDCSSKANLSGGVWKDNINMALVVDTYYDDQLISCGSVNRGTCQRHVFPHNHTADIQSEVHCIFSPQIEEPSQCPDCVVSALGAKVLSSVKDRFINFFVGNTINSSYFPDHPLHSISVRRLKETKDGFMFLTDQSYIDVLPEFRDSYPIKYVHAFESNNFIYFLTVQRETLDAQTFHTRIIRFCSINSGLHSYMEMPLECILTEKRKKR
T3 sequence (P08581 other isoform, or with tags, fused parts or gaps limits assumed, chain 1 of 2): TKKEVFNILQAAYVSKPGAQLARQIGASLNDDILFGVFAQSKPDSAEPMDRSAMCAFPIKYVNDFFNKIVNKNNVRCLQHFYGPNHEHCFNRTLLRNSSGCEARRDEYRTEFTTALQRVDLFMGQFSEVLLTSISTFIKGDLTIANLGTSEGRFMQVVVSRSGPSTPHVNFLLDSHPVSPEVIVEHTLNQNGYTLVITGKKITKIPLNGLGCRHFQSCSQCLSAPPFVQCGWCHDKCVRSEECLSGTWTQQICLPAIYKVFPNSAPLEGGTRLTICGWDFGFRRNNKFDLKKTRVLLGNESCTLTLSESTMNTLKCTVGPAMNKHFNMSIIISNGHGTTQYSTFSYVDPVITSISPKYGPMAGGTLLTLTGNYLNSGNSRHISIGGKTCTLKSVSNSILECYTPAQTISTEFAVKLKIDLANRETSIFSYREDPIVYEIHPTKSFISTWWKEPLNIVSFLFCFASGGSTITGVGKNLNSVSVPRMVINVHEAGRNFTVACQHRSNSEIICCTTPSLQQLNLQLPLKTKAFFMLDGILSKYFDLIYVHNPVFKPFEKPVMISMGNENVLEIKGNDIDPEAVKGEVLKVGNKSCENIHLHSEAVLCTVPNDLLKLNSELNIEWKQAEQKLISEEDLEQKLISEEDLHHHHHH
T3 sequence (P08581 27-307 limits assumed, chain 2 of 2): as the sequence (P08581 27-307 limits assumed, chain 2 of 2) above
T1 sequence (P08581 25-1390 limits assumed, form in doubt): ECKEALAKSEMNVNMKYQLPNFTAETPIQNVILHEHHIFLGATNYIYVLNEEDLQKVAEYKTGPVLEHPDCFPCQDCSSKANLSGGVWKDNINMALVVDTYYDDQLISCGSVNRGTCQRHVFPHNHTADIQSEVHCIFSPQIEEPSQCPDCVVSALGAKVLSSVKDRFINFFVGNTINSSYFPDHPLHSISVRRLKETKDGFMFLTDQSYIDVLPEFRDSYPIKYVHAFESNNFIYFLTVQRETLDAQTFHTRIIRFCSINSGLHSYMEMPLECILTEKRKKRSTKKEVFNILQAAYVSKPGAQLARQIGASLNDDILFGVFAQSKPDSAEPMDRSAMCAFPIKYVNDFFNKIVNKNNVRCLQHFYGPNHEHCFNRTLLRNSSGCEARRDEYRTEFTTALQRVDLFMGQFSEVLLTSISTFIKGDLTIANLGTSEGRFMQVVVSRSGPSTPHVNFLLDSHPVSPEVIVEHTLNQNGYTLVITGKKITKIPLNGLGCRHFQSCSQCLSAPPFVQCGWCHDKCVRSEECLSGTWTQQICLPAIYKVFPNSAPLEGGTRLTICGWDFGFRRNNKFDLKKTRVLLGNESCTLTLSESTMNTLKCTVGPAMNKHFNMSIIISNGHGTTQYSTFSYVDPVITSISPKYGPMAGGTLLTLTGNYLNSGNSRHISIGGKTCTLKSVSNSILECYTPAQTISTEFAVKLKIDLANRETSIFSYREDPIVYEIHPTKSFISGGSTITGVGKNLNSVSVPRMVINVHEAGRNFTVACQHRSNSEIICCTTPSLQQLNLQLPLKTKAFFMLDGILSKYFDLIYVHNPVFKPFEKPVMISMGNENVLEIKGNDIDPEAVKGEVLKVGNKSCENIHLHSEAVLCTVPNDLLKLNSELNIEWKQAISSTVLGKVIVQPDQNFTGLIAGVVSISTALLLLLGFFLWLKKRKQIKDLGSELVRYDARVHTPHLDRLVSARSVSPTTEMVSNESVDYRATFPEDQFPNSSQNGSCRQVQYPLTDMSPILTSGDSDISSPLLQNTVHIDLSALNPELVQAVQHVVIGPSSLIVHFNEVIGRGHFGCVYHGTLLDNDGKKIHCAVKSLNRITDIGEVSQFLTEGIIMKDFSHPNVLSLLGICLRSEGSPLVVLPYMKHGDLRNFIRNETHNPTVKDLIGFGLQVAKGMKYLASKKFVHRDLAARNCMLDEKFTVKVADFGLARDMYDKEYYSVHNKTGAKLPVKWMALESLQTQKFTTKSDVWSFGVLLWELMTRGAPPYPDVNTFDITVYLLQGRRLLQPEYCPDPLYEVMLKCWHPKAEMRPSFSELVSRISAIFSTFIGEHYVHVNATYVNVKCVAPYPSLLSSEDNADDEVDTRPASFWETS

| Binder | % Inhibition, HEK293/SRE-Luc Blocking Activity (HGF, 1 h mAb pre-bind) [1] | EC50, Ligand (HGF)-Independent HEK293/SRE-Luc Activation [1] | Fold Response, Ligand (HGF)-Independent HEK293/SRE-Luc Activation [1] | IC50, HEK293/SRE-Luc Blocking Activity (HGF, 1 h mAb pre-bind) [1] | % Growth Inhibition, SNU5 cells [2] | IC50, SNU5 growth [2] | Kd [3] | T½ [3] | koff [3] | kon [3] | Kd [4] | T½ [4] | koff [4] | kon [4] | IC50, 6-day in vitro cytotoxicity, A549 [5] | IC50, 6-day in vitro cytotoxicity, EBC-1 [5] | IC50, 6-day in vitro cytotoxicity, Hs746t [5] | Max % Kill, 6-day in vitro cytotoxicity, A549 [5] | Max % Kill, 6-day in vitro cytotoxicity, EBC-1 [5] | Max % Kill, 6-day in vitro cytotoxicity, Hs746t [5] |
| --- | --- | --- | --- | --- | --- | --- | --- | --- | --- | --- | --- | --- | --- | --- | --- | --- | --- | --- | --- | --- |
| H4H13316P2 (antibody, human IgG4, V domains shown) VH: EVQLVESGGGLVQPGGSLRLSCAASGFTFRSYVMSWFRQAPGKGLEWVSGMSGSGGSTSYADSVKGRFTISRDNSKNTLYLLMNSLRTEDTAVYYCAKENGANWNYGYYGMDVWGQGTTVTVSS VL: not shown | 74% | 0.047 nM | 2.3 fold | 0.0078 nM | 53% | 0.1 nM |  |  |  |  |  |  |  |  |  |  |  |  |  |  |
| H4H13316P2 (antibody, human IgG4, V domains shown, human IgG4 Fc (H4H), bivalent monospecific) VH: EVQLVESGGGLVQPGGSLRLSCAASGFTFRSYVMSWFRQAPGKGLEWVSGMSGSGGSTSYADSVKGRFTISRDNSKNTLYLLMNSLRTEDTAVYYCAKENGANWNYGYYGMDVWGQGTTVTVSS VL: not shown |  |  |  |  |  |  | 0.367 nM | 107 min | 0.000108 s⁻¹ | 293000 M⁻¹ s⁻¹ | 19.3 nM | 7.6 min | 0.00151 s⁻¹ | 78200 M⁻¹ s⁻¹ |  |  |  |  |  |  |
| H4H13300P2 (antibody, human IgG4, V domains shown, human IgG4 Fc (H4H), bivalent monospecific) VH: QVQLVESGGGVVQPGRSLRLSCAVSGFTFSSYGMHWVRQAPGKGLEWVANIWYDGTNDYYPYSVKGRFTISRDNSQNTLYLQMNSLRAEDTAVYYCAREDFINYRSFDYWGQGTLVTVSS VL: not shown |  |  |  |  |  |  | 1.12 nM | 39.1 min | 0.000295 s⁻¹ | 265000 M⁻¹ s⁻¹ | 72.5 nM | 4.8 min | 0.00243 s⁻¹ | 33500 M⁻¹ s⁻¹ |  |  |  |  |  |  |
| H4H13325P2 (antibody, human IgG4, V domains shown) VH: EVQLLESGGGWVQPGGSLRLSCAASGFAFSNYAMNWVRQTPGKGLEWVSVISSSGGNTYYADSVKGRFAISRDNSRDTLHLQMNRLRVEDTAVYYCAKEIRPYYDLSYYYGMDVWGQGTTVTVSS VL: not shown | 69% | 0.19 nM | 4.3 fold | 0.013 nM | 57% | 0.044 nM |  |  |  |  |  |  |  |  |  |  |  |  |  |  |
| H4H13325P2 (antibody, human IgG4, V domains shown, human IgG4 Fc (H4H), bivalent monospecific) VH: EVQLLESGGGWVQPGGSLRLSCAASGFAFSNYAMNWVRQTPGKGLEWVSVISSSGGNTYYADSVKGRFAISRDNSRDTLHLQMNRLRVEDTAVYYCAKEIRPYYDLSYYYGMDVWGQGTTVTVSS VL: not shown |  |  |  |  |  |  | 0.605 nM | 62.4 min | 0.000185 s⁻¹ | 306000 M⁻¹ s⁻¹ | 24.8 nM | 4.9 min | 0.00236 s⁻¹ | 95300 M⁻¹ s⁻¹ |  |  |  |  |  |  |
| H4H13302P2 (antibody, human IgG4, V domains shown, human IgG4 Fc (H4H), bivalent monospecific) VH: QVQLVESGGGVVQPGRSLRLSCAASGFTFSNFGMHWVRQAPGKGLEWVAGIWFDGSNKNYIDSVKGRFTISRDNSKNTLYLQMNSLRAEDTAVYYCAREGYDSGTDYIPYDIFDIWGQGTMVTVSS VL: not shown |  |  |  |  |  |  | 2.33 nM | 19.8 min | 0.000584 s⁻¹ | 251000 M⁻¹ s⁻¹ | 47 nM | 4.7 min | 0.00246 s⁻¹ | 52400 M⁻¹ s⁻¹ |  |  |  |  |  |  |
| H4H13299P2 (antibody, human IgG4, V domains shown, human IgG4 Fc (H4H), bivalent monospecific) VH: EVQLVESGGGLVQPGGSLRLSCAASGFIFSNYEMNWVRQAPGKGLEWISYITSSGNMKYYADSVKGRFTISRDNDKNSLYLQMSSLRVEDTAVYYCVRGGRFLEWLTYYVMVVWGQGTTVTVSS VL: not shown |  |  |  |  |  |  | 0.878 nM | 36.8 min | 0.000314 s⁻¹ | 357000 M⁻¹ s⁻¹ | 8.57 nM | 14.8 min | 0.00078 s⁻¹ | 91000 M⁻¹ s⁻¹ |  |  |  |  |  |  |
| H4H13312P2-Maytansinoid A (antibody, IgG4, V domains shown, SMCC-DM1 (Maytansinoid A) linker-payload conjugated to the antibody; residues not stated) VH: EVQLVESGGGLVQPGGSLRLSCAASGFIVTTNYMTWLRQAPGKGLEWVSLIYSSGHTYYADSVKGRFTISRHNSKNTLYLQMDSLRAEDTAVYYCASAFAADVFDIWGQGTMVTVSS VL: not shown |  |  |  |  |  |  |  |  |  |  |  |  |  |  | 18.3 nM | 0.39 nM | 1.59 nM | 89% | 95% | 87% |
| H4H14635D-Maytansinoid A (bispecific antibody, V domains shown, SMCC-DM1 (Maytansinoid A) linker-payload conjugated to the antibody; residues not stated) VH 1: QVQLVESGGGVVQPGRSLRVSCVVSGFTFSSFGMHWVRQAPDKGLEWVAVIWYDGSNDYYSDSVKGRFTISRDNSKNTLFLQMNRLRAEDTAVYYCARANNWNRFDAFDLWGQGTMVTVSS VH 2: EVQLVESGGGLVQPGGSLRLSCAASGFIVTTNYMTWLRQAPGKGLEWVSLIYSSGHTYYADSVKGRFTISRHNSKNTLYLQMDSLRAEDTAVYYCASAFAADVFDIWGQGTMVTVSS VL: not shown |  |  |  |  |  |  |  |  |  |  |  |  |  |  | 6.78 nM | 0.76 nM | 1.76 nM | 91% | 96% | 86% |
| H4H13312P2-Maytansinoid B (antibody, IgG4, V domains shown, Maytansinoid B (Compound 1, FIG. 20) linker-payload conjugated to the antibody; residues not stated) VH: EVQLVESGGGLVQPGGSLRLSCAASGFIVTTNYMTWLRQAPGKGLEWVSLIYSSGHTYYADSVKGRFTISRHNSKNTLYLQMDSLRAEDTAVYYCASAFAADVFDIWGQGTMVTVSS VL: not shown |  |  |  |  |  |  |  |  |  |  |  |  |  |  | 27.1 nM | 0.07 nM | 0.89 nM | 85% | 95% | 90% |
| H4H14635D-Maytansinoid B (bispecific antibody, V domains shown, Maytansinoid B (Compound 1, FIG. 20) linker-payload conjugated to the antibody; residues not stated) VH 1: QVQLVESGGGVVQPGRSLRVSCVVSGFTFSSFGMHWVRQAPDKGLEWVAVIWYDGSNDYYSDSVKGRFTISRDNSKNTLFLQMNRLRAEDTAVYYCARANNWNRFDAFDLWGQGTMVTVSS VH 2: EVQLVESGGGLVQPGGSLRLSCAASGFIVTTNYMTWLRQAPGKGLEWVSLIYSSGHTYYADSVKGRFTISRHNSKNTLYLQMDSLRAEDTAVYYCASAFAADVFDIWGQGTMVTVSS VL: not shown |  |  |  |  |  |  |  |  |  |  |  |  |  |  | 21.4 nM | 0.26 nM | 2.32 nM | 72% | 96% | 89% |
| H4H13291P2 (antibody, human IgG4, V domains shown, human IgG4 Fc (H4H), bivalent monospecific) VH: QVQLVESGGGVVQPGGSLRLSCAASGFTFSGYGMHWVRQAPGKGLEWMAVIWYDGSNDYYPDSVKGRFTISRDNSKNTLYLQMNSLRVEDTAVYYCARDAWDLLRSFDYWGQGTLVTVSS VL: not shown |  |  |  |  |  |  | 1.02 nM | 34 min | 0.000339 s⁻¹ | 333000 M⁻¹ s⁻¹ | 93.4 nM | 4.8 min | 0.00238 s⁻¹ | 25500 M⁻¹ s⁻¹ |  |  |  |  |  |  |
| H4H13313P2 (antibody, human IgG4, V domains shown, human IgG4 Fc (H4H), bivalent monospecific) VH: QVQLVESGGGVVQPGRSLRLSCSASGFSFSHFGMHWVRQVPGGGLEWVTSIWFDGSNRYYADSLKGRFTISRDNSKNTLYLEMNSLRAEDTAVYYCVREGILGTTNPYDVFDVWGQGTMVTVSS VL: not shown |  |  |  |  |  |  | 1.19 nM | 12.9 min | 0.000893 s⁻¹ | 750000 M⁻¹ s⁻¹ | 64.9 nM | 2 min | 0.0057 s⁻¹ | 87800 M⁻¹ s⁻¹ |  |  |  |  |  |  |
| H4H13319P2 (antibody, human IgG4, V domains shown, human IgG4 Fc (H4H), bivalent monospecific) VH: QVQLVESGGGVVQPGRSLRLSCAASGFTFSSFAMHWVRQAPGKGLEWVAVIWYDGSNDYYAASVKGRFTISRDNSKNTLYLEMNRLRAEDTAVYHCARDNWNYWGGMDVWGQGTTVTVSS VL: not shown |  |  |  |  |  |  | 1.42 nM | 21.3 min | 0.000542 s⁻¹ | 382000 M⁻¹ s⁻¹ | 76.5 nM | 4.9 min | 0.00238 s⁻¹ | 31100 M⁻¹ s⁻¹ |  |  |  |  |  |  |
| H4H13301P2 (antibody, human IgG4, V domains shown, human IgG4 Fc (H4H), bivalent monospecific) VH: QVQLVESGGGVVQPGTSLRLSCVASGFTFRNFGMHWVRQAPGKGLEWVANIWFDGSNENYVESIQGRFTISRDNSKNTLNLQMNSLRAEDSAVYYCVREGILGTTNPYDAFDVWGQGTMVTVSS VL: not shown |  |  |  |  |  |  | 1.62 nM | 10.1 min | 0.00114 s⁻¹ | 705000 M⁻¹ s⁻¹ | 82.2 nM | 1.9 min | 0.00622 s⁻¹ | 75700 M⁻¹ s⁻¹ |  |  |  |  |  |  |
| H4H13295P2 (antibody, human IgG4, V domains shown, human IgG4 Fc (H4H), bivalent monospecific) VH: QVQLVESGGGVVQPGRSLRVSCVVSGFTFSSFGMHWVRQAPDKGLEWVAVIWYDGSNDYYSDSVKGRFTISRDNSKNTLFLQMNRLRAEDTAVYYCARANNWNRFDAFDLWGQGTMVTVSS VL: not shown |  |  |  |  |  |  | 1.16 nM | 43.8 min | 0.000264 s⁻¹ | 228000 M⁻¹ s⁻¹ | 32.4 nM | 21.4 min | 0.00054 s⁻¹ | 16700 M⁻¹ s⁻¹ |  |  |  |  |  |  |
| H4H13331P2 (antibody, human IgG4, V domains shown, human IgG4 Fc (H4H), bivalent monospecific) VH: QVQLQESGPGLVKSSETLSLTCTVSGGSIRNFYWSWLRQPPGKGLEWIGHINYNGGTDYNPSLKSRVTISVDTSKNQFSLNLNSVTAADTAVYYCARQRFYGMDVWGPGTTVTVSS VL: not shown |  |  |  |  |  |  | 0.244 nM | 74.1 min | 0.000156 s⁻¹ | 639000 M⁻¹ s⁻¹ | 3.35 nM | 13.2 min | 0.000873 s⁻¹ | 261000 M⁻¹ s⁻¹ |  |  |  |  |  |  |
| H4H13318P2 (antibody, human IgG4, V domains shown, human IgG4 Fc (H4H), bivalent monospecific) VH: QVQLVESGGGVVQPGRSLRLSCVASGFSFSNFGMHWVRQAPGKGLEWVAIIWYDGSNKYYSDSVKGRFTISRDNSKNTLYLQMNSLRVDDTAVYYCARFDRWKFDAFDIWGQGTMVTVSS VL: not shown |  |  |  |  |  |  | 0.467 nM | 70.2 min | 0.000165 s⁻¹ | 352000 M⁻¹ s⁻¹ | 88.3 nM | 4 min | 0.00292 s⁻¹ | 33000 M⁻¹ s⁻¹ |  |  |  |  |  |  |
